Assay [1] concerns the target T1, human TL1A extracellular domain with N-terminal HIS and FLAG tag (human) (UniProt O95150).
T1 sequence: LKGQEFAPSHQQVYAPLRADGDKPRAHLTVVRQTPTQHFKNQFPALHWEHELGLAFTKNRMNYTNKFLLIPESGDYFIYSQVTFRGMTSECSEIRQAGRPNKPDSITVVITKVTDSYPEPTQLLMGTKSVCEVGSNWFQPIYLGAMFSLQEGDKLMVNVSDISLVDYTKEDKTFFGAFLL
Nature of the assay: cell-based or functional assay.

Assay [2] concerns the target T2, human TL1A extracellular domain with N-terminal HIS and FLAG tag (human, UniProt O95150 72-251).
T2 construct: whole entry named. ~70 kDa fraction purified by gel filtration
T2 sequence: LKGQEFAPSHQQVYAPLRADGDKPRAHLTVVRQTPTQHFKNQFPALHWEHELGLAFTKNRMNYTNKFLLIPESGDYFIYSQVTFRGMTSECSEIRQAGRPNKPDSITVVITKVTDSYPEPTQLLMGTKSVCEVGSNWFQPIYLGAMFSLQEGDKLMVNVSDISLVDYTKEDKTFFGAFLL
Briefly: SPR run 2; supernatant on Protein A; TL1A 10 ug/mL; timepoint 44. An excerpt: (§1) 1.5. Antibody expression and antigen binding as determined by SPR. Using a CM5 sensor chip (GE Healthcare) Protein A (Pierce) was coupled to the chip surface using an amine coupling kit (GE Healthcare). Protein A was coupled on flow cell 1 and 2 (or alternatively 3 and 4) using a BIACORE® T200. […] The amount of supernatant or purified protein (as well as the concentration) injected during the capture stage varied between runs and is specified in the header of the Tables 3-11. At the end of injection of the supernatant or purified antibody the change in response units was measured. This value was reported as Capture Level in Tables 3-11. […] The response units were measured prior to the end of the dissociation phase. […] The sensorgrams were double referenced (flow cell 2 is subtracted from flow cell 1 and a buffer blank). As there were a large number of antibody variants to screen, these were screened across different runs (Tables 3-11). […] A summary of the conditions used in each run is below:
(§2) 2.1. […] In some experiment the antibodies were purified using Protein A chromatography (See 1.4) and purified antibodies were used in BIACORE® (GE Healthcare) experiments.

For assay [3], the target named is T2, human TL1A extracellular domain with …. Briefly: SPR run 2; supernatant on Protein A; TL1A 10 ug/mL; timepoint 220.
Excerpt: as §1, §2

B1: 320-198 (antibody, human IgG1, name in Kabat numbering, V domains shown)
VH: QVQLVQSGAEVKKPGASVKVSCKASGYTFTSYDINWVRQAPGQGLEWMGWLNPNSGNTGYAQKFQGRVTMTADRSTSTAYMELSSLRSEDTAVYYCAREVPETAAFEYWGQGTLVTVSS
VL: QSVLTQPPSVSGAPGQRVTISCLSSSSDIGAGLGVHWYQQLPGTAPKLLIEGYYNRPSGVPDRFSGSKSGTSASLTITGLLPEDEGDYYCQSYDGTLSALFGGGTKLTVLG
notes: human IgG1, lambda
In assay [1], B1 displayed an Antibody IC50, TL1A induced caspase potency assay in TF-1 cells of 0.01 µg/mL and a Fold improvement over 320-179, TL1A induced caspase potency assay in TF-1 cells of 1 fold. Moreover, the “TL1A Binding Level (Early)” value in assay [2] worked out at 262 RU. Besides, the “TL1A Binding Level (Late)” value in assay [3] turned out to be 241 RU.

B2: 320-202 (antibody, human IgG1, name in Kabat numbering, V domains shown)
VH: QVQLVQSGAEVKKPGASVKVSCKASGYTFTSYDINWVRQAPGQGLEWMGWLNPNSGNTGYAQKFQGRVTMTADRSTSTAYMELSSLRSEDTAVYYCAREVPETAAFEYWGQGTLVTVSS
VL: QSVLTQPPSVSGAPGQRVTISCTQSSSDIGAGLGVHWYQQLPGTAPKLLIEGYYNRPSGVPDRFSGSKSGTSASLTITGLLPEDEGDYYCQSYDGTLSALFGGGTKLTVLG
notes: human IgG1, lambda
In assay [1], B2 returned an Antibody IC50, TL1A induced caspase potency assay in TF-1 cells of 0.01 µg/mL and a Fold improvement over 320-179, TL1A induced caspase potency assay in TF-1 cells of 1 fold. In addition, the “TL1A Binding Level (Early)” value in assay [2] was 234 RU. In assay [3], the “TL1A Binding Level (Late)” value stood at 214 RU.

B3: 320-207 (antibody, human IgG1, name in Kabat numbering, V domains shown)
VH: QVQLVQSGAEVKKPGASVKVSCKASGYTFTSYDINWVRQAPGQGLEWMGWLNPNSGNTGYAQKFQGRVTMTADRSTSTAYMELSSLRSEDTAVYYCAREVPETAAFEYWGQGTLVTVSS
VL: QSVLTQPPSVSGAPGQRVTISCTWSSSDIGAGLGVHWYQQLPGTAPKLLIEGYYNRPSGVPDRFSGSKSGTSASLTITGLLPEDEGDYYCQSYDGTLSALFGGGTKLTVLG
notes: human IgG1, lambda
In assay [1], B3 gave an Antibody IC50, TL1A induced caspase potency assay in TF-1 cells of 0.007 µg/mL and a Fold improvement over 320-179, TL1A induced caspase potency assay in TF-1 cells of 3 fold. Moreover, the “TL1A Binding Level (Early)” value in assay [2] was determined as 268 RU. The “TL1A Binding Level (Late)” value in assay [3] was determined as 243 RU.

B4: 320-242 (antibody, human IgG1, name in Kabat numbering, V domains shown)
VH: QVQLVQSGAEVKKPGASVKVSCKASGYTFTSYDINWVRQAPGQGLEWMGWLNPNSGNTGYAQKFQGRVTMTADRSTSTAYMELSSLRSEDTAVYYCAREVPETAAFEYWGQGTLVTVSS
VL: QSVLTQPPSVSGAPGQRVTISCTSSSSDSGAGLGVHWYQQLPGTAPKLLIEGYYNRPSGVPDRFSGSKSGTSASLTITGLLPEDEGDYYCQSYDGTLSALFGGGTKLTVLG
notes: human IgG1, lambda
With B4, in assay [2], the “TL1A Binding Level (Early)” value stood at 124 RU. In addition, the “TL1A Binding Level (Late)” value in assay [3] is 49 RU.

B5: 320-249 (antibody, human IgG1, name in Kabat numbering, V domains shown)
VH: QVQLVQSGAEVKKPGASVKVSCKASGYTFTSYDINWVRQAPGQGLEWMGWLNPNSGNTGYAQKFQGRVTMTADRSTSTAYMELSSLRSEDTAVYYCAREVPETAAFEYWGQGTLVTVSS
VL: QSVLTQPPSVSGAPGQRVTISCTSSSSDYGAGLGVHWYQQLPGTAPKLLIEGYYNRPSGVPDRFSGSKSGTSASLTITGLLPEDEGDYYCQSYDGTLSALFGGGTKLTVLG
notes: human IgG1, lambda
In the case of B5, in assay [2], the “TL1A Binding Level (Early)” value is 77 RU. For the same molecule, the “TL1A Binding Level (Late)” value in assay [3] came out at 28 RU.

B6: 320-248 (antibody, human IgG1, name in Kabat numbering, V domains shown)
VH: QVQLVQSGAEVKKPGASVKVSCKASGYTFTSYDINWVRQAPGQGLEWMGWLNPNSGNTGYAQKFQGRVTMTADRSTSTAYMELSSLRSEDTAVYYCAREVPETAAFEYWGQGTLVTVSS
VL: QSVLTQPPSVSGAPGQRVTISCTSSSSDWGAGLGVHWYQQLPGTAPKLLIEGYYNRPSGVPDRFSGSKSGTSASLTITGLLPEDEGDYYCQSYDGTLSALFGGGTKLTVLG
notes: human IgG1, lambda
B6: in assay [2], the “TL1A Binding Level (Early)” value was 96 RU. In assay [3], the “TL1A Binding Level (Late)” value turned out to be 30 RU.

B7: 320-243 (antibody, human IgG1, name in Kabat numbering, V domains shown)
VH: QVQLVQSGAEVKKPGASVKVSCKASGYTFTSYDINWVRQAPGQGLEWMGWLNPNSGNTGYAQKFQGRVTMTADRSTSTAYMELSSLRSEDTAVYYCAREVPETAAFEYWGQGTLVTVSS
VL: QSVLTQPPSVSGAPGQRVTISCTSSSSDQGAGLGVHWYQQLPGTAPKLLIEGYYNRPSGVPDRFSGSKSGTSASLTITGLLPEDEGDYYCQSYDGTLSALFGGGTKLTVLG
notes: human IgG1, lambda
Regarding B7, in assay [2], the “TL1A Binding Level (Early)” value was determined as 71 RU. In assay [3], the “TL1A Binding Level (Late)” value is 26 RU.

B8: 320-247 (antibody, human IgG1, name in Kabat numbering, V domains shown)
VH: QVQLVQSGAEVKKPGASVKVSCKASGYTFTSYDINWVRQAPGQGLEWMGWLNPNSGNTGYAQKFQGRVTMTADRSTSTAYMELSSLRSEDTAVYYCAREVPETAAFEYWGQGTLVTVSS
VL: QSVLTQPPSVSGAPGQRVTISCTSSSSDLGAGLGVHWYQQLPGTAPKLLIEGYYNRPSGVPDRFSGSKSGTSASLTITGLLPEDEGDYYCQSYDGTLSALFGGGTKLTVLG
notes: human IgG1, lambda
Regarding B8, in assay [2], the “TL1A Binding Level (Early)” value worked out at 205 RU. In addition, the “TL1A Binding Level (Late)” value in assay [3] is 162 RU.

B9: 320-250 (antibody, human IgG1, name in Kabat numbering, V domains shown)
VH: QVQLVQSGAEVKKPGASVKVSCKASGYTFTSYDINWVRQAPGQGLEWMGWLNPNSGNTGYAQKFQGRVTMTADRSTSTAYMELSSLRSEDTAVYYCAREVPETAAFEYWGQGTLVTVSS
VL: QSVLTQPPSVSGAPGQRVTISCTSSSSDIAAGLGVHWYQQLPGTAPKLLIEGYYNRPSGVPDRFSGSKSGTSASLTITGLLPEDEGDYYCQSYDGTLSALFGGGTKLTVLG
notes: human IgG1, lambda
As for B9, the “TL1A Binding Level (Early)” value in assay [2] worked out at 180 RU. The “TL1A Binding Level (Late)” value in assay [3] amounted to 115 RU.

B10: 320-240 (antibody, human IgG1, name in Kabat numbering, V domains shown)
VH: QVQLVQSGAEVKKPGASVKVSCKASGYTFTSYDINWVRQAPGQGLEWMGWLNPNSGNTGYAQKFQGRVTMTADRSTSTAYMELSSLRSEDTAVYYCAREVPETAAFEYWGQGTLVTVSS
VL: QSVLTQPPSVSGAPGQRVTISCTSSSSYIGAGLGVHWYQQLPGTAPKLLIEGYYNRPSGVPDRFSGSKSGTSASLTITGLLPEDEGDYYCQSYDGTLSALFGGGTKLTVLG
notes: human IgG1, lambda
As for B10, the “TL1A Binding Level (Early)” value in assay [2] was determined as 230 RU. Moreover, the “TL1A Binding Level (Late)” value in assay [3] is 196 RU.

B11: 320-251 (antibody, human IgG1, name in Kabat numbering, V domains shown)
VH: QVQLVQSGAEVKKPGASVKVSCKASGYTFTSYDINWVRQAPGQGLEWMGWLNPNSGNTGYAQKFQGRVTMTADRSTSTAYMELSSLRSEDTAVYYCAREVPETAAFEYWGQGTLVTVSS
VL: QSVLTQPPSVSGAPGQRVTISCTSSSSDISAGLGVHWYQQLPGTAPKLLIEGYYNRPSGVPDRFSGSKSGTSASLTITGLLPEDEGDYYCQSYDGTLSALFGGGTKLTVLG
notes: human IgG1, lambda
Consider B11, for which the “TL1A Binding Level (Early)” value in assay [2] worked out at 134 RU. In addition, the “TL1A Binding Level (Late)” value in assay [3] amounted to 50 RU.

B12: 320-246 (antibody, human IgG1, name in Kabat numbering, V domains shown)
VH: QVQLVQSGAEVKKPGASVKVSCKASGYTFTSYDINWVRQAPGQGLEWMGWLNPNSGNTGYAQKFQGRVTMTADRSTSTAYMELSSLRSEDTAVYYCAREVPETAAFEYWGQGTLVTVSS
VL: QSVLTQPPSVSGAPGQRVTISCTSSSSDKGAGLGVHWYQQLPGTAPKLLIEGYYNRPSGVPDRFSGSKSGTSASLTITGLLPEDEGDYYCQSYDGTLSALFGGGTKLTVLG
notes: human IgG1, lambda
In the case of B12, the “TL1A Binding Level (Early)” value in assay [2] turned out to be 32 RU. Further, in assay [3], the “TL1A Binding Level (Late)” value worked out at 23 RU.

B13: 320-239 (antibody, human IgG1, name in Kabat numbering, V domains shown)
VH: QVQLVQSGAEVKKPGASVKVSCKASGYTFTSYDINWVRQAPGQGLEWMGWLNPNSGNTGYAQKFQGRVTMTADRSTSTAYMELSSLRSEDTAVYYCAREVPETAAFEYWGQGTLVTVSS
VL: QSVLTQPPSVSGAPGQRVTISCTSSSSWIGAGLGVHWYQQLPGTAPKLLIEGYYNRPSGVPDRFSGSKSGTSASLTITGLLPEDEGDYYCQSYDGTLSALFGGGTKLTVLG
notes: human IgG1, lambda
Regarding B13, the “TL1A Binding Level (Early)” value in assay [2] was determined as 212 RU. Also, the “TL1A Binding Level (Late)” value in assay [3] is 163 RU.

The record behind these values is patent publication US20170081400A1 (CEPHALON, published 2017).
